# Source: US10618965 (dated 2020)
# Numbering of substitutions follows the chain as printed. Like-named read-outs stand apart in the source and are kept apart here.
# T1: human FcgRIIb (human)
# T1 chain: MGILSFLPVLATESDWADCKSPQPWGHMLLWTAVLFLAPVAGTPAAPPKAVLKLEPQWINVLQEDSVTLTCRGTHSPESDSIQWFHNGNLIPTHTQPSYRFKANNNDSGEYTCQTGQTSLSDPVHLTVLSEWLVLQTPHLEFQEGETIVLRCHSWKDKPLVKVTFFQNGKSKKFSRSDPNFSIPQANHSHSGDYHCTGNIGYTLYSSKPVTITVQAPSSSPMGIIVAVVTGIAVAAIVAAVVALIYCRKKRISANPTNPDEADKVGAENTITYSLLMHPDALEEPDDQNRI
# T2: human FcgRIIa(R) (human)
# T2 chain: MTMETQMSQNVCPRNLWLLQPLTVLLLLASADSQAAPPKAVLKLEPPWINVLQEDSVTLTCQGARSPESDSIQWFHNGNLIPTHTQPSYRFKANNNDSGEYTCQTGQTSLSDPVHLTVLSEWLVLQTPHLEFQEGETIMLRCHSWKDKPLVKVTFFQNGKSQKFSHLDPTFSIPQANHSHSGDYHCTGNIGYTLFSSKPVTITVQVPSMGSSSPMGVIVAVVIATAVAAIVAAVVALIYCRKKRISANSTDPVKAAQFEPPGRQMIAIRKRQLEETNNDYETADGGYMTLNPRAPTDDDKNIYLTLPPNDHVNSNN
# T3: human FcgRIIa(H) (human)
# T3 chain: T2 chain
# T4: human IL-6 receptor (human)
# T4 chain: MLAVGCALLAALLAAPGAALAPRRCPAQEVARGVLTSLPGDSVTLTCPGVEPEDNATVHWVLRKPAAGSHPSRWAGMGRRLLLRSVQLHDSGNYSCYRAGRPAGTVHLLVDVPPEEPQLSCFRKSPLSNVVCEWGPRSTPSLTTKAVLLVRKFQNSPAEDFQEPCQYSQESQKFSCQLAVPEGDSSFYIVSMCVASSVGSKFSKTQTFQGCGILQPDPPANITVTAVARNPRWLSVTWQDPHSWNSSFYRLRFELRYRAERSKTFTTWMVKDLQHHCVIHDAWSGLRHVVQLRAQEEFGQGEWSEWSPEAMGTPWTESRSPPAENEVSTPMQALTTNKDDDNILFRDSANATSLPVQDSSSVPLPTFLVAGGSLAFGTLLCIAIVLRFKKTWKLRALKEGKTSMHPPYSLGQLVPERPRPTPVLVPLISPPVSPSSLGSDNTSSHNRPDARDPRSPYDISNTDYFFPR
# B1: IL6R-G1d/IL6R-L (IgG1) (antibody)
# chain 1: not shown
# chain 2: DIQMTQSPSSLSASVGDRVTITCRASQDISSYLNWYQQKPGKAPKLLIYYTSRLHSGVPSRFSGSGSGTDFTFTISSLQPEDIATYYCQQGNTLPYTFGQGTKVEIK
# B2: IgG1-F698 (antibody)
# chain 1: QVQLQESGPGLVKPSETLSLTCAVSGHSISHDHAWSWVRQPPGEGLEWIGFISYSGITNYNPSLQGRVTISRDNSKNTLYLQMNSLRAEDTAVYYCARSLARTTAMDYWGEGTLVTVSSASTKGPSVFPLAPSSKSTSGGTAALGCLVKDYFPEPVTVSWNSGALTSGVHTFPAVLQSSGLYSLSSVVTVPSSSLGTQTYICNVNHKPSNTKVDKKVEPKSCDKTHTCPPCPAPELLGGPSVFLFPPKPKDTLYISRTPEVTCVVVDVSHEDPEVKFNWYVDGVEVHEAKTKPREEQYNSTYRVVSVLQVLHADWLNGKEYKCKVSNKALPAPIEKTISKAKGQPREPQVYTLPPSRDELTKNQVSLTCLVKGFYPSDIAVEWESNGQPENNYKTTPPVLDSDGSFFLYSKLTVDKSRWQQGNVFSCSVMHEALHYHYTQKSLSLSP
# chain 2: not shown
# B3: IL6R-B3/IL6R-L (antibody)
# chain 1: not shown
# chain 2: B1 chain 2
# B4: IgG2 (antibody)
# chain 1: QVQLQESGPGLVKPSETLSLTCAVSGHSISHDHAWSWVRQPPGEGLEWIGFISYSGITNYNPSLQGRVTISRDNSKNTLYLQMNSLRAEDTAVYYCARSLARTTAMDYWGEGTLVTVSSASTKGPSVFPLAPCSRSTSESTAALGCLVKDYFPEPVTVSWNSGALTSGVHTFPAVLQSSGLYSLSSVVTVPSSNFGTQTYTCNVDHKPSNTKVDKTVERKCCVECPPCPAPPVAGPSVFLFPPKPKDTLMISRTPEVTCVVVDVSHEDPEVQFNWYVDGVEVHNAKTKPREEQFNSTFRVVSVLTVVHQDWLNGKEYKCKVSNKGLPAPIEKTISKTKGQPREPQVYTLPPSREEMTKNQVSLTCLVKGFYPSDIAVEWESNGQPENNYKTTPPMLDSDGSFFLYSKLTVDKSRWQQGNVFSCSVMHEALHNHYTQKSLSLSP
# chain 2: not shown
# B5: F947 (antibody)
# chain 1: B2 chain 1 with T252V, E288N, V310P, Y438V
# chain 2: not shown
# B6: 6RL#9-IgG1 (antibody, V domains shown)
# VH: QVQLVQSGAEVKKPGASVKVSCKASGYTFTSYYMHWVRQAPGQGLEWMGIINPSGGSTSYAQKFQGRVTMTRDTSTSTVYMELSSLRSEDTAVYYCARDDPGGGEYYFDYWGQGTLVTVSS
# VL: QSVLTQPPSVSGAPGQRVTISCTGSRSNMGAGYDVHWYQLLPGAAPKLLISHNTHRPSGVPDRFSGSKSGASASLAITGLQAEDEADYYCQSHDSSLSAVVFGGGTKLTVLS
# B7: F1326 (antibody)
# chain 1: B2 chain 1 with L236A, L237A, T252V, E288N, V310P, Y438V
# chain 2: not shown
# B8: FH4-IgG1 (antibody, V domains shown)
# VH: QVQLVQSGAEVKKPGSSVKVSCKASGGTFSSYAISWVRQAPGQGLEWMGGIIPIFGTANYAQKFQGRVTITADESTSTAYMELSSLRSEDTAVYYCARERDYYDSSGYYDAFDIWGQGTMVTVSS
# VL: ETTVTQSPSFLSASVGDRVTITCITTTDIDDDMNWFQQEPGKAPKLLISEGNILRPGVPSRFSSSGYGTDFTLTISKLQPEDFATYYCLQSDNLPFTFGQGTKLEIKR
# B9: IgG4-F890 (antibody)
# chain 1: QVQLQESGPGLVKPSETLSLTCAVSGHSISHDHAWSWVRQPPGEGLEWIGFISYSGITNYNPSLQGRVTISRDNSKNTLYLQMNSLRAEDTAVYYCARSLARTTAMDYWGEGTLVTVSSASTKGPSVFPLAPCSRSTSESTAALGCLVKDYFPEPVTVSWNSGALTSGVHTFPAVLQSSGLYSLSSVVTVPSSSLGTKTYTCNVDHKPSNTKVDKRVESKYGPPCPPCPAPEFLGGPSVFLFPPKPKDTLYISRTPEVTCVVVDVSQEDPEVQFNWYVDGVEVHNAKTKPREEQFNSTYRVVSVLTVLHQDWLNGKEYKCKVSNKGLPSSIEKTISKAKGQPREPQVYTLPPSQEEMTKNQVSLTCLVKGFYPSDIAVEWESNGQPENNYKTTPPVLDSDGSFFLYSRLTVDKSRWQEGNVFSCSVMHEALHYHVTQKSLSLSL
# chain 2: not shown
# B10: IgG2-F939 (antibody)
# chain 1: B4 chain 1 with A234R, S237K, M250Y, N432Y, Y434V
# chain 2: not shown
# Tests used:
# [1] = target: T1, human FcgRIIb; experiment: SPR
# [2] = target: human FcgRIIIa(V) (human); experiment: SPR
# Sequence of human FcgRIIIa(V) (human) (chain, as listed by the source): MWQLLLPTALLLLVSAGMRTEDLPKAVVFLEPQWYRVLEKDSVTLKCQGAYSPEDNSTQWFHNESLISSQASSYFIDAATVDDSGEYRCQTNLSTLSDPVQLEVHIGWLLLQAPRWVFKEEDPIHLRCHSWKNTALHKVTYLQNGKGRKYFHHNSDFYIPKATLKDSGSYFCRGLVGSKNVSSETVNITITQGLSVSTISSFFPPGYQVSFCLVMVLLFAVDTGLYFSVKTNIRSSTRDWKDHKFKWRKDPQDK
# [3] = target: T2, human FcgRIIa(R); experiment: SPR
# [4] = target: human FcgRIa (human); experiment: SPR
# Sequence of human FcgRIa (human) (chain, as listed by the source): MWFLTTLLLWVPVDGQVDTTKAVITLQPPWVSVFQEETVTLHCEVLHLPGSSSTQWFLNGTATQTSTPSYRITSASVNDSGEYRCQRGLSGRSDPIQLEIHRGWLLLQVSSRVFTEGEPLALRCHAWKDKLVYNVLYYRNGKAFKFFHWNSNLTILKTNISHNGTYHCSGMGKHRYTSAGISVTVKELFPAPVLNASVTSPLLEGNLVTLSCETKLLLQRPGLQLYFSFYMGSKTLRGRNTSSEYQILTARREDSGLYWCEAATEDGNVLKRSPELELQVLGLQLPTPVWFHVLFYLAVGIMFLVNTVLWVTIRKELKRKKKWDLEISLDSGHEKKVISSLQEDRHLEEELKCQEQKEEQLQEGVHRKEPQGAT
# [5] = target: T2, human FcgRIIa(R); experiment: SPR
# [6] = target: human FcgRIIIa(V) (human); experiment: SPR; remark: listed apart in the source
# [7] = target: T3, human FcgRIIa(H); experiment: SPR
# [8] = target: human FcgRIIIa(V) (human); experiment: SPR; remark: listed apart in the source
# [9] = target: T2, human FcgRIIa(R); experiment: SPR
# [10] = target: T1, human FcgRIIb; experiment: SPR
# [11] = target: T1, human FcgRIIb; experiment: SPR
# [12] = target: T1, human FcgRIIb; experiment: SPR
# [13] = target: human FcgRIa (human); experiment: SPR; remark: listed apart in the source
# [14] = target: T3, human FcgRIIa(H); experiment: SPR
# [15] = target: T3, human FcgRIIa(H); experiment: SPR
# [16] = target: T1, human FcgRIIb; experiment: SPR
# [17] = target: human FcgRIa (human); experiment: SPR; remark: listed apart in the source
# [18] = target: human FcRn (with beta2-microglobulin) (human); experiment: SPR, pH 7.0
# Sequence of human FcRn (with beta2-microglobulin) (human) (chain, as listed by the source, chain 1 of 2): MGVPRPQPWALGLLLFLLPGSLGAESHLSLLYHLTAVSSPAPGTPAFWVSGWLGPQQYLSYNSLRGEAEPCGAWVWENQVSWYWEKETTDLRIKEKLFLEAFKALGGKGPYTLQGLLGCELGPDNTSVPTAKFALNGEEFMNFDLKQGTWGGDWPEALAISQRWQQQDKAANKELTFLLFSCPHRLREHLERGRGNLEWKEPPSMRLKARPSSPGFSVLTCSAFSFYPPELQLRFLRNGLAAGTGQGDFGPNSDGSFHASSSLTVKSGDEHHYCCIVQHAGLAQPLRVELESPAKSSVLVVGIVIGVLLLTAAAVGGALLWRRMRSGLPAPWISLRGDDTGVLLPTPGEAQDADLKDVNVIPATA
# Sequence of human FcRn (with beta2-microglobulin) (human) (chain, as listed by the source, chain 2 of 2): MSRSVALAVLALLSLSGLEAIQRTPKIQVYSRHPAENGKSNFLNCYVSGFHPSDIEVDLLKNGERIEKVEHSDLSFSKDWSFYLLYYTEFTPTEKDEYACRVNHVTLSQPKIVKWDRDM
# [19] = target: human FcRn (with beta2-microglobulin) (human); experiment: SPR, pH 7.0; remark: listed apart in the source
# [20] = target: human FcRn (with beta2-microglobulin) (human); experiment: SPR, pH 7.0; remark: listed apart in the source
# [21] = target: human FcRn (with beta2-microglobulin) (human); experiment: SPR, pH 7.0; remark: listed apart in the source
# [22] = target: human FcRn (with beta2-microglobulin) (human); experiment: SPR, pH 7.0; remark: listed apart in the source
# [23] = target: human FcRn (with beta2-microglobulin) (human); experiment: SPR, pH 7.0; remark: listed apart in the source
# [24] = target: T4, human IL-6 receptor; experiment: SPR, 3 uM CaCl2, 37C
# [25] = target: T4, human IL-6 receptor; experiment: SPR, 3 uM CaCl2, 37C
# [26] = target: human FcRn (with beta2-microglobulin) (human); experiment: SPR, pH 7.0; remark: listed apart in the source
binder,measurement,setting,value
B1,Kd,[1],5300 nM
same,Kd,[2],350 nM
same,Kd,[3],1000 nM
same,Kd,[4],0.32 nM
same,Kd,[5],1000 nM
same,Kd,[6],350 nM
same,Kd,[7],670 nM
same,Kd,[8],350 nM
same,Kd,[9],1000 nM
same,Kd,[10],2600 nM
same,Kd,[11],5300 nM
same,Kd,[12],2600 nM
same,Kd,[13],0.32 nM
same,Kd,[14],670 nM
same,Kd,[15],670 nM
same,Kd,[16],2600 nM
same,Kd,[17],0.32 nM
B2,Kd,[18],22 nM
same,Kd,[19],22 nM
B3,Kd,[2],330 nM
same,Kd,[3],1100 nM
same,Kd,[4],0.42 nM
same,Kd,[7],770 nM
same,Kd,[8],330 nM
same,Kd,[9],1100 nM
same,Kd,[10],3100 nM
same,Kd,[14],770 nM
same,Kd,[16],3100 nM
same,Kd,[17],0.42 nM
B4,binding result,[20],no binding
B5,Kd,[21],11 nM
same,Kd,[22],11 nM
same,Kd,[23],11 nM
B6,Kd,[24],> 31000 nM
same,Kd,[25],~31000 nM
B7,Kd,[21],11 nM
same,Kd,[23],11 nM
B8,Kd,[24],> 34000 nM
same,Kd,[25],~34000 nM
B9,Kd,[26],140 nM
B10,Kd,[26],140 nM
